From the DeepSol protein solubility set

assay: soluble on expression in E. coli; label from the status in PepcDB or PDB records

Q: For “MPSGGQRKHTISNKTRKRPGKDLDQIHEDLKPEKAAKLLQQEIDYDLPGNGQFYCIECERHFVDEKTRQLHRKTKLHKNRVKTLKEVPYTQAEANAAGGSGFFPAITLKTRVELPKQPEIPIPVVAET”, which “soluble on expression in E. coli” value is on record?
A: soluble

Q: Which “soluble on expression in E. coli” value does the source give for “MGSDKIHHHHHHMPMNRIDRLLGMITLLQAKKFVSAEKIADKFKISKRTVFRDIKAICEQGIPVGSEPNKGYFIVDGYFLPPVLFNNDEANALLLTESLVKGFADKSISKHYSNALDKIKAGLKQVDKDKLEHMQDAIKFQLPERMNNDFEYLSILQVAVSDKKIIYIDYKNNKEEVSKREIEPIGLIFYAFSWHLIGWCHHRKAYRDFKVSRIIQMKNTGVPFKKNKHMPLSEYMKELPVNY” here?
A: not soluble

Q: Which “soluble on expression in E. coli” value does the source give for “MSLKIAILCASGKVGKEISKEALKRNLEPVCFVRNSSKMNEFLPQAKIVQRDLFELDSKDLIDFDIIIDAFGEWENLSLHKKHIECLSVILQGSKAKLFVVGGAGSLYMDENHTTRLMDMPDFPKEYLDIAKASAEVLEFLRNEKGFKWVYVSPSAIFSPDLPKSNHYKIIGEKFEVNANNESKISYSDYASAMIDIVLNSCYENTRIGVISLEGHHHHHH” here?
A: soluble

Q: Which “soluble on expression in E. coli” value does the source give for “MSLQTSDQYSIQEVVDAGHGFFGETTGGLAKVVERAFQQYGLPNGYILGQEGSGAFVAGLTYGEGTLYTKNAGQHPVFWQGPSLGLDYGGQGTRAMMLVYNLPSVDALYRRYGGVSGSAFIVAGVGMTYLKSSDVTLAPIRTGIGARLGINVGYLKLTQQPTWNPFEGHHHHHH” here?
A: soluble

Q: Which “soluble on expression in E. coli” value does the source give for “MGSDKIHHHHHHMKKFVCSNCGYVSPKWFGRCPQCGEYDTAEEVQRRKNREGSPSLFLNLEDAGEISLERLSTGFSELDRAFRGGIVPGQVILLSGEPGIGKSTIALQIAERFAERGLVVYVSGEESPQQLKLRADRLLLKRKKDILLTLENDIDEIISSLQNKRVSFMVVDSIQTVFSSDLGSSPGSISQVKNVTMKTIDFAKRRGVPVLLVGHVTKEGEIAGPKLVEHMVDTVAYFEGDRRTGLRLLKITKNRFGPSDEVAVFELKENGFVQVENPSFTEGDADLPGNVLTCVFEGTKPFVVQIQALVSKNRTFSPKRVCKGVDVNRVMLLIAVISKYLKLPIETHDVYVNVVGGLRVTDPAADLAIALSIVSSYLEVSLHNTAAVGEIGLDGRVRKVYNINRRLNSLKSSGRIIVPPIEEEQKGVFEVRDLKEAVSIIGGEILGTPGAD” here?
A: not soluble

Q: For “MTDFDIDTSAANYADELALLGVTGAMSYAPKGTQMPETIAPLNPPFVDFGWLSDGGITESQNEERNDWTPFQSTNPIRGQVTKQDFQFKTVVWSISGLANAMYYGVPESDMRFDQETGVTTFEQGKELPPDFKFGLVVDIVDGGKARRHCMPNVSVVERGDIVYSKDDLVGYEMTFRASYDPVAGYAVRRMFKEGWKPGHAGTTLADENKDASLGDWSNTLDESEVRKQSKTVTLPKGATGGTFTVSINGKASAAINHDATGTAMKLVLNKVDGGESAKVTGRAGGPYTITGVEGEITADGTNLTGSDTQDISIN”, which “soluble on expression in E. coli” value is on record?
A: not soluble

Q: For “MGSDKIHHHHHHMTDLADLTCVGPGTPMGTLMRQYWVPAAKSSELKRDGDPMRLMLLGEKLIAFRDSEGRVGVLDHRCPHRCASLFLGRNEESGIRCVYHGWKFDVAGRCVDMPSVPPHQDFKDKVHAKAFRTAERNGLVWVYMGDAAEPPPLPAIEANLVADCEIWCLQRDCNWLQALEGDIDTSHVGFLHVGSLKPDDLADDHPMRPTVLDRAPEYAVTNTAWGTMYGGYRPNDDGQRSWRVAHFMFPFWTQTPNNRFSSRAIARAWVPMDDEHSMLFDITCGVDEGNPAYSSTRKTGEPLFAPFEYAPATTDWFGRWRCVDDRRNDWGIDRELQRNGSQYTGIPNITMQDQAVTESMGPIIDHSYEHLAPTDQMIARTRRRLLLATQALSEQGTLPPGAQDSDVFFGARAGSFLCDPGLPFETAYATQLETATRWAGDKVVS”, which “soluble on expression in E. coli” value is on record?
A: not soluble

Q: For “MGSDKIHHHHHHMAKQVVKRTIIGSITNHQQVQDDLDSLGFAASKLWNVARWTTGRIWNETGHIPEDGELKSYLKSHERYSDLHSQSSQRVLEELSEAFTGWYGKRRNGDSKANPPAYRKHNDEHPRSTLTFKGAGFKLDTTNGRLRLSKGENLKEYWSDFVLCDIQIRPDVDLSAIESVQQVRAVWNKQRNEWELHVVCNVTVDIPENSAEKTVGIDLGICNFAALAFENQESELYPLNCLKQDDYYYSKHIARCDDSSSEEATRLHAKKSNRRTHYFHTLSKHIVERCVDENVGVIAIGDLSGIREDEDGEMKDWGKHGNLDLHSWAFDRFTDMLEYKAEEVGISVKRVSEENTSKSCSSCGCERDTNRVERGLYVCNECELVANADVNGAENIRQQVSPNPRSEDRSNGWLAQPSTLLFDKETGVFAPQEQVVS”, which “soluble on expression in E. coli” value is on record?
A: not soluble

Q: With “MSLKPSVVLNGDAITLGDIWENIGDKAGTPLANAPAPGKRITLETRWLMAVAQSYGIDWRPASPFERSVVERAGQSVDIRAIETELKEALSMEGAPAGASIEISNRQQLHIVIPATASPTVAVKDLAYDPRMNRFQAVVEAPAGAPNSVRFKVMGSVYASARIPVLAHAMGRGDVIREDDIQWVDVREEVVRRDIISNARMLVGQEPRYQLRAGVPVRTNEVQKPVVVAKNSSVTIMLRSKFMTLTAQGRAIEDGSVGDVIRVTNVQSKQTVDAKIEGPGQVSVMPGGLRTLANEGHHHHHH” as the sequence, how does the “soluble on expression in E. coli” value read?
A: not soluble

Q: For “RPSINFYESLIDSSSLDGKLLSPRRSSGWVRVDTNMWGNPFFGFRSDLVSGQFRPDYPFRFSSNLYLSKEVKEIVLNTIASTPRNGVGRYKYSDLGFILLQQIVEKVSGKSLNVFVEERIFRPIGAGSLGYLPLDKYSVSRIAPAQNDKFLRKSIVRGTVDDE”, which “soluble on expression in E. coli” value is on record?
A: not soluble

Q: For “MGSDKIHHHHHHMTTHSHTLTIAGQPLHYTDQGQGNTLVFIHGLLGNKVQWQSQIDALKANYRCIAIDLWGHGDSQTMPENTANLKDIASQLLSMLTALNINSCSLISLGTGCAIASEMALLSPKNINALVMINGFIGFEPEVNCVKYQGMLDEVQLNNGISTALAKQIATLFFNTQAQKTAVKTDTVTNAVTNEIESASVDSQISDKAMAALAQQLTEINAVQLSALVKFVPMAIYKRDTLEDVERFCLPSLILASNNNKLRTPLEAYLMQDTLDGSQLTQIPNAGHWVHLEQAEQLKQLISQFLQQH”, which “soluble on expression in E. coli” value is on record?
A: not soluble

Q: Which “soluble on expression in E. coli” value does the source give for “MEFRQLKYFIAVAEAGNMAAAAKRLHVSQPPITRQMQALEADLGVVLLERSHRGIELTAAGHAFLEDARRILELAGRSGDRSRAAARGDVGELSVAYFGTPIYRSLPLLLRAFLTSTPTATVSLTHMTKDEQVEGLLAGTIHVGFSRFFPRHPGIEIVNIAQEDLYLAVHRSQSGKFGKTCKLADLRAVELTLFPRGGRPSFADEVIGLFKHAGIEPRIARVVEDATAALALTMAGAASSIVPASVAAIRWPDIAFARIVGTRVKVPISCIFRKEKQPPILARFVEHVRRSAKD” here?
A: soluble

Q: Which “soluble on expression in E. coli” value does the source give for “ENLGATVIPASTGNTEKHVRLIRDLGITGIACTPSYALYLAEVVERMGLTKNDINLRIGAFGAEPWTESMRKEIEERLGLKGYNIYGLSEIMGPGVSYECQEQH” here?
A: not soluble

Q: With “GMQYATLELNNAFKVLFSLRQVQAAEMVIAPGDREGGPDNRHRGADQWLFVVDGAGEAIVDGHTQALQAGSLIAIERGQAHEIRNTGDTPLKTVNFYHPPAYDAQGEPLPAGEG” as the sequence, how does the “soluble on expression in E. coli” value read?
A: soluble

Q: With “MDSLEKIKEEVISCKKCKLWQFRTNAVPGEGYPKAEIMFVGEAPGENEDKEGRPFVGAAGKLLTQMIKEILGLERDQVFITNVVKCRPPNNRDPEEDEITACSPYLDRQIDIIMPKIIVTLGRHSTKYIFSKMGENFSSITKVRGKSYVWKYKEKEIIVFPTYHPAAALYNPNLRKILEEDFKKIRELAITPKRYTIDYFLGGKNRSWDKREKSDSNSGK” as the sequence, how does the “soluble on expression in E. coli” value read?
A: soluble

Q: With “KNTPVRMRGTLQDITERTKIEDSLLLSEERYRSFIQNFTGIAFQQDEDLNLEFVKGNVEEITGYSEEELMSKKRWRKIVEKQDLPLFLKKEREIKNARSPYSGKLSYRIRCKDGKIKWVHEVYQKIPGKN” as the sequence, how does the “soluble on expression in E. coli” value read?
A: not soluble

Q: With “MGSDKIHHHHHHMQEVATEARIGPNSIIQTVAAARAQYGEEAVADWLRRTGRGHLLEAMPDHMLPESEFGDLIADLRFWLGVSAAADVLAQSGDLTAQYVATHRVPVPIRWLLPRLPVGLALRIFLPAIARHAWTFAGSGRFGYTLQPAWRLTLADSVEARGVRATEPVCAYYRAAFEGLLRRVVCDRLRVHEVACRAMGTGRCEFAVELSR” as the sequence, how does the “soluble on expression in E. coli” value read?
A: not soluble
